This experiment concerns the target SARS-CoV-2 XBB.1 S2P spike trimer (SARS-CoV-2). Description: SPR; spike captured through its C-terminal His-tag on a CM5 chip with anti-His antibodies (His Capture Kit); serially diluted human ACE2-Fc flowed over; HBS-EP+ buffer; 25°C; Biacore T200, single-cycle mode; 1:1 binding model.

human ACE2-Fc protein (from pcDNA3-sACE2-WT(732)-IgG1), sequence (Q9BYF1 18-732): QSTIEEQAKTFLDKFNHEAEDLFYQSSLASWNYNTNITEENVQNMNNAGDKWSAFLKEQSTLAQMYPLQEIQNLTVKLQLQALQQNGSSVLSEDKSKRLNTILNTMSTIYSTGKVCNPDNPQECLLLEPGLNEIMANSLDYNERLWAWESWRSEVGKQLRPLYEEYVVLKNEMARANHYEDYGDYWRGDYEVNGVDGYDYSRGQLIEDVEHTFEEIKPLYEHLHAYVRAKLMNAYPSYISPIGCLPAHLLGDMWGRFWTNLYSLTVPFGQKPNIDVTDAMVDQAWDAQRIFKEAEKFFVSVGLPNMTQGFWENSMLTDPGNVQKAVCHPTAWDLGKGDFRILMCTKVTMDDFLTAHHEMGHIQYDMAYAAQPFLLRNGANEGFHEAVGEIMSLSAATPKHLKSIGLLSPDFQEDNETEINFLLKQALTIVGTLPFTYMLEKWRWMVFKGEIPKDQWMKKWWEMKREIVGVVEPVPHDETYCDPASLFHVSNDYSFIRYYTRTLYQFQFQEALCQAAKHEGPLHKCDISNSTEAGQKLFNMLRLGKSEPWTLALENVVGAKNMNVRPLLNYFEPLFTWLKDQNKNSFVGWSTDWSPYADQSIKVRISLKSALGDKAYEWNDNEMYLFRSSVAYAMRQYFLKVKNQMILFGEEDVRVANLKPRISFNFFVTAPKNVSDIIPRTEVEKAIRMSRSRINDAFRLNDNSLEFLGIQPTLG

One may read the Kd as the concentration at which binding is half-saturated. As to “human ACE2-Fc protein (from pcDNA3-sACE2-WT(732)-IgG1) (from UniProt Q9BYF1 18-732) (Fc fusion)”, the Kd came to 2.06 nM.

(Values after publication PMC9747694.)
